The chains are these.
B1: Azoarcus group I ribozyme (parent)
chain: GUGCCUUGCGCCGGGAAACCACGCAAGGGAUGGUGUCAAAUUCGGCGAAACCUAAGCGCCCGCCCGGGCGUAUGGCAACGCCGAGCCAAGCUUCGGCGCCUGCGCCGAUGAAGGUGUAGAGACUAGACGGCACCCACCUAAGGCAAACGCUAUGGUGAAGGCAUAGUCCAGGGAGUGGCGAAAGUCACACAAACCGG

Variants of B1 are the subject of the data set. As to the kind of experiment: reverse-splicing fitness (ratio to wild type); higher = more active; in vitro selection; Mg2+ level not given. Summed up:
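An in vitro group I ribozyme library with randomized positions was T7-transcribed and gel-purified. In triplicate, 10 pmol RNA in EPPS pH 7.5 was reacted with 50 pmoles of a 30-nt RNA substrate for 1 h at 37 °C across several added MgCl2 levels (1–48 mM), then stopped with EDTA. Products were reverse transcribed from a substrate-complementary primer, PCR-amplified and sequenced (HiSeq 4000). Fitness is a variant's read proportion after selection over that before, normalised to wild type.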
For the variant A111C A120C A145U C150A C169U U176G, the reverse-splicing fitness was determined as 0.00632.

As to A111C A120G A145C C150U C169U, the reverse-splicing fitness stood at 0.0398.

Regarding A111C A120G A145C C150U C169A, the reverse-splicing fitness amounted to 0.0284.

A111C A120G A145C C150U C169G: the reverse-splicing fitness amounted to 0.0492.

On to A111C A120C A145G, for which the reverse-splicing fitness was 0.614.

With A111C A120C A145U, the reverse-splicing fitness was 0.589.

For the variant A111C A120C A145U C150G U176A, the reverse-splicing fitness turned out to be 0.0202.

For the variant A111C A120C A145U C150G U176G, the reverse-splicing fitness turned out to be 0.00607.

As for A111C A120C A145U C150G U176C, the reverse-splicing fitness was 0.034.

Consider A111C A120C C150U C169U, for which the reverse-splicing fitness came out at 0.113.

As for A111C A120C C150U C169G, the reverse-splicing fitness is 0.00843.

Regarding A111C A120C C150U C169A, the reverse-splicing fitness is 0.0123.

On to A111C A120C A145C U176A, for which the reverse-splicing fitness came to 0.172.

For A111C A120C A145C U176G, the reverse-splicing fitness turned out to be 0.0513.

In the case of A111C A120C A145C U176C, the reverse-splicing fitness is 0.197.

Consider A111C A120G A145G C150A C169A U176C, for which the reverse-splicing fitness is 0.022.

For the variant A111C A120G A145G C150A C169A U176A, the reverse-splicing fitness worked out at 0.0174.

As to A111C A120G A145G C150A C169A U176G, the reverse-splicing fitness amounted to 0.0058.

With A111C A120C A145G U176C, the reverse-splicing fitness came to 0.203.

For the variant A111C A120C A145G U176A, the reverse-splicing fitness came out at 0.19.

For A111C A120C A145G U176G, the reverse-splicing fitness stood at 0.0393.

As for A111C A120C A145G C150G U176G, the reverse-splicing fitness was found to be 0.0072.

On to A111C A120C A145G C150G U176C, for which the reverse-splicing fitness stood at 0.0368.

As for A111C A120C A145G C150G U176A, the reverse-splicing fitness stood at 0.0158.

A111C A120G A145C C150A C169U U176G: the reverse-splicing fitness is 0.00392.

In the case of A111C A120G A145C C150A C169U U176C, the reverse-splicing fitness turned out to be 0.00924.

Regarding A111C A120G A145C C150A C169U U176A, the reverse-splicing fitness turned out to be 0.0178.

Take A111C A120G A145G C150A C169A: the reverse-splicing fitness stood at 0.02.

As for A111C A120G A145G C150A C169G, the reverse-splicing fitness came out at 0.0313.

Consider A111C A120G A145G C150A C169U, for which the reverse-splicing fitness amounted to 0.0326.

On to A111C A120G A145C C150U U176C, for which the reverse-splicing fitness stood at 0.0189.

As to A111C A120G A145C C150U U176A, the reverse-splicing fitness was found to be 0.0163.

In the case of A111C A120G A145C C150U U176G, the reverse-splicing fitness amounted to 0.00427.

On to A111C A120G A145G C150G C169G U176C, for which the reverse-splicing fitness came to 0.0114.

Take A111C A120G A145G C150G C169G U176G: the reverse-splicing fitness is 0.00543.

A111C A120G A145G C150G C169G U176A: the reverse-splicing fitness worked out at 0.0101.

Consider A111C A120C A145U C169U U176A, for which the reverse-splicing fitness stood at 0.035.

For A111C A120C A145U C169U U176G, the reverse-splicing fitness worked out at 0.00761.

On to A111C A120C A145U C169U U176C, for which the reverse-splicing fitness amounted to 0.0445.

On to A111C A120C A145G C150U, for which the reverse-splicing fitness came to 0.462.

As for A111C A120C A145G C150A, the reverse-splicing fitness turned out to be 0.0979.

A111C A120C A145G C150G: the reverse-splicing fitness turned out to be 0.0633.

On to A111C A120C A145C C150G C169U, for which the reverse-splicing fitness is 0.0267.

As to A111C A120G A145C C150G U176G, the reverse-splicing fitness was determined as 0.00301.

For the variant A111C A120G A145C C150G U176C, the reverse-splicing fitness came to 0.0168.

For A111C A120G A145C C150G U176A, the reverse-splicing fitness was 0.0112.

A111C A120C A145U C150U C169U U176C: the reverse-splicing fitness came to 0.0374.

A111C A120C A145U C150U C169U U176A: the reverse-splicing fitness came out at 0.028.

For the variant A111C A120C A145U C150U C169U U176G, the reverse-splicing fitness was determined as 0.00661.

For the variant A111C A120C A145G C150U U176C, the reverse-splicing fitness came out at 0.18.

A111C A120C A145G C150U U176A: the reverse-splicing fitness was determined as 0.159.

For A111C A120C A145G C150U U176G, the reverse-splicing fitness was found to be 0.0297.

With A111C A120C A145G C150G C169G, the reverse-splicing fitness came out at 0.00738.

Take A111C A120C A145G C150G C169U: the reverse-splicing fitness was 0.0264.

With A111C A120C A145G C150G C169A, the reverse-splicing fitness was determined as 0.009.

As for A111C A120C A145U C169A U176G, the reverse-splicing fitness is 0.00762.

For A111C A120C A145U C169A U176C, the reverse-splicing fitness amounted to 0.0102.

For A111C A120C A145U C169A U176A, the reverse-splicing fitness was 0.0135.

With A111C A120C A145U U176A, the reverse-splicing fitness was 0.222.

On to A111C A120C A145U U176G, for which the reverse-splicing fitness stood at 0.0519.

As to A111C A120C A145U U176C, the reverse-splicing fitness is 0.215.

With A111C A120C A145U C150G C169A U176G, the reverse-splicing fitness came to 0.00619.

Turning to A111C A120C A145U C150G C169A U176C, the reverse-splicing fitness amounted to 0.00906.

For the variant A111C A120C A145U C150G C169A U176A, the reverse-splicing fitness came out at 0.0107.

As for A111C A120C A145C C150U U176C, the reverse-splicing fitness was determined as 0.0914.

A111C A120C A145C C150U U176A: the reverse-splicing fitness was determined as 0.069.

As for A111C A120C A145C C150U U176G, the reverse-splicing fitness was found to be 0.0168.

For the variant A111C A120C A145U C150A, the reverse-splicing fitness was 0.0648.

As to A111C A120C A145U C150G, the reverse-splicing fitness was 0.0621.

Take A111C A120C A145U C150U: the reverse-splicing fitness worked out at 0.415.

For A111C A120C A145G C169G, the reverse-splicing fitness amounted to 0.0102.

As to A111C A120C A145G C169U, the reverse-splicing fitness came out at 0.184.

As for A111C A120C A145G C169A, the reverse-splicing fitness stood at 0.0109.

For A111C A120C A145G C150G C169A U176G, the reverse-splicing fitness was 0.00793.

As to A111C A120C A145G C150G C169A U176A, the reverse-splicing fitness was 0.0133.

With A111C A120C A145G C150G C169A U176C, the reverse-splicing fitness was 0.0116.

In the case of A111C A120C A145U C150A C169G U176A, the reverse-splicing fitness amounted to 0.0127.

On to A111C A120C A145U C150A C169G U176C, for which the reverse-splicing fitness came to 0.0146.

Turning to A111C A120C A145U C150A C169G U176G, the reverse-splicing fitness turned out to be 0.00651.

Turning to A111C A120C A145G C150G C169U U176G, the reverse-splicing fitness turned out to be 0.0071.

For the variant A111C A120C A145G C150G C169U U176C, the reverse-splicing fitness was determined as 0.0128.

As to A111C A120C A145G C150G C169U U176A, the reverse-splicing fitness was 0.0114.

With A111C A120G A145G, the reverse-splicing fitness turned out to be 0.189.

As for A111C A120G A145C, the reverse-splicing fitness was found to be 0.149.

Values taken from the RNAGym collection of RNA variant scans (doi:10.1093/molbev/msab373).
